Molecular target: OB-R (leptin receptor) expressed by rabbit endometrial cells (rEEC and rESC) (rabbit)
Experiment: competition with 125I-human leptin for OB-R in rabbit endometrial cell lysates (rEEC and rESC), PEG precipitation

B1: LPA-2 (leptin peptide antagonist 2; residues 70-95 of helix III of the human leptin molecule) (peptide)
peptide: SRNVIQISNDLENLRDLLHVLAFSKS
Work on B1 yielded a Ki of 0.06 nM.

Source: patent US20050250690A1
